The values that follow come from the supplement of paper PMC10126150.

For this series, the system named is ATP. The experiment in a line: switch fluorescence ratio, 500 uM ATP over buffer (Cy3 cluster intensity, sum of 5 cycles each) (fold (ratio)); higher = stronger signal-on switching upon ATP binding; sequences stand for … in TCGTCGGCAGCGTCAGATGTGTATAAGAGACAGTTTTTTTTTTTTTTTTTTTTTTTTT…TC. As to conditions: aptamer strand: ATP DNA aptamer (quencher-CACCTGGGGGAGTATTGCGGAGGAAGG + anchor), 100 nM annealed; ATP concentration: 500 uM. The essentials:
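Cy3-labelled switching-strand clusters on a modified Illumina MiSeq flow-cell were annealed to 100 nM quencher-labelled ATP aptamer and imaged first in selection buffer, then after 15 min with 500 uM ATP at 22 °C. NaOH stripping and re-annealing separated each of five buffer/ATP cycles, and clusters outside 100-1000 RFU were excluded. The fluorescence ratio sums target-cycle Cy3 intensity over buffer-cycle Cy3 intensity per cluster and averages it per switch-domain sequence.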

± gives the standard deviation of the averaged measurements.
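Note: ATP exposure 15 min at 22 °C before imaging.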

In the case of CTACGTTGGA, the switch fluorescence ratio came out at 1.03 ± 0.02.

TGTGCTGGTG: the switch fluorescence ratio worked out at 1.039 ± 0.0068.

On to CGTGTAAGAT, for which the switch fluorescence ratio worked out at 1.03 ± 0.047.

Consider AGATATCATT, for which the switch fluorescence ratio was 0.9848 ± 0.0086.

With TTTTTATTGT, the switch fluorescence ratio came to 0.997 ± 0.035.

As to TTGGGCATTT, the switch fluorescence ratio came to 1.05 ± 0.089.

As for TCGGCATCGG, the switch fluorescence ratio was determined as 1 ± 0.021.

Consider TTGTGGGAAT, for which the switch fluorescence ratio turned out to be 1.05 ± 0.077.

As for TGTCTTTTTA, the switch fluorescence ratio stood at 0.995 ± 0.028.

Regarding TATGGTCTTT, the switch fluorescence ratio is 0.979 ± 0.019.

Regarding CTTCGTCTCG, the switch fluorescence ratio stood at 1.08 ± 0.072.

Take TGAGGAAGGC: the switch fluorescence ratio is 0.992 ± 0.039.

Turning to AGATGGTCAC, the switch fluorescence ratio was 1.032 ± 0.0086.

Regarding ATGAAGGCGG, the switch fluorescence ratio stood at 1.05 ± 0.068.

Take ATATTGGGGT: the switch fluorescence ratio was 1.01 ± 0.019.

Regarding CTCCTAAATG, the switch fluorescence ratio turned out to be 1.19 ± 0.015.

Take AATTTTTCTG: the switch fluorescence ratio turned out to be 0.9869 ± 0.008.

As to TACTTTTGCA, the switch fluorescence ratio amounted to 0.985 ± 0.025.

As to TCATGTACCG, the switch fluorescence ratio was found to be 1.05 ± 0.044.

As to AATTATCTGT, the switch fluorescence ratio came to 0.9792 ± 0.0065.

As for CGCAGGGGGG, the switch fluorescence ratio amounted to 1.09 ± 0.034.

TAGTGGGTTT: the switch fluorescence ratio turned out to be 1.01 ± 0.021.

As to CGAATGGCCC, the switch fluorescence ratio was found to be 1 ± 0.012.

For the sequence ACGGGGGAAT, the switch fluorescence ratio was 0.991 ± 0.02.

On to CCATGTGTAG, for which the switch fluorescence ratio worked out at 1 ± 0.017.

For the sequence CGGTGTGAGG, the switch fluorescence ratio is 0.988 ± 0.031.

With TAAGGGCGGT, the switch fluorescence ratio turned out to be 0.957 ± 0.032.

Consider CCGAATTATA, for which the switch fluorescence ratio was 2.04 ± 1.3.

Turning to TGTTGCCACG, the switch fluorescence ratio was 1 ± 0.0062.

Take CGGAATGCAG: the switch fluorescence ratio turned out to be 1.076 ± 0.0032.

In the case of ACGGAAGTGC, the switch fluorescence ratio came to 1.12 ± 0.036.

With CTCTGTATGT, the switch fluorescence ratio was 1.035 ± 0.0081.

As to TTGAGGTTGT, the switch fluorescence ratio came out at 0.99 ± 0.028.

Turning to TGGATAGGTA, the switch fluorescence ratio worked out at 0.995 ± 0.023.

Consider TTAGTTCCTT, for which the switch fluorescence ratio stood at 1.01 ± 0.024.

With ATCACTGATT, the switch fluorescence ratio was found to be 1.057 ± 0.0085.

On to ATTTACCGGT, for which the switch fluorescence ratio came to 1.03 ± 0.022.

For the sequence CGGGAAGGAG, the switch fluorescence ratio came to 0.9685 ± 0.0053.

Regarding CTTGTAGGTG, the switch fluorescence ratio came out at 1.36 ± 0.48.

Turning to CGAGGGGCCA, the switch fluorescence ratio stood at 1 ± 0.027.

Regarding GGTTTAGATA, the switch fluorescence ratio was 0.987 ± 0.031.

Take CGTGGAGTGG: the switch fluorescence ratio was found to be 0.996 ± 0.029.

With TTGAGCTAGA, the switch fluorescence ratio was 0.971 ± 0.025.

Turning to GGGTTAAAGG, the switch fluorescence ratio is 1 ± 0.015.

Take TTAGTGAGGG: the switch fluorescence ratio was found to be 0.99 ± 0.042.

Turning to GAGTTAAGAC, the switch fluorescence ratio was 0.991 ± 0.049.

On to TTCATGGGGT, for which the switch fluorescence ratio is 1.04 ± 0.033.

With TTATGCTATG, the switch fluorescence ratio was found to be 1.055 ± 0.0034.

Regarding TGATTCAGAG, the switch fluorescence ratio came to 0.992 ± 0.029.

As to AAAAAGTTTT, the switch fluorescence ratio was found to be 0.985 ± 0.058.

For TCGGGGGAGG, the switch fluorescence ratio was 0.983 ± 0.022.

As to TGTAAAAACG, the switch fluorescence ratio is 1.01 ± 0.056.

As for GATGTGAAAG, the switch fluorescence ratio is 0.9638 ± 0.003.

In the case of CGGTTTTTGC, the switch fluorescence ratio is 1.03 ± 0.058.

For the sequence TCGGGCATAG, the switch fluorescence ratio came out at 1.06 ± 0.046.

Consider TCCATTAGAT, for which the switch fluorescence ratio was 1.019 ± 0.0066.

For the sequence TCGGTTGGGA, the switch fluorescence ratio stood at 0.986 ± 0.038.

Consider CTTCGTGGCC, for which the switch fluorescence ratio is 1.04 ± 0.036.

Turning to TGTTTGGCTG, the switch fluorescence ratio came to 1.054 ± 0.0084.

For ATTTCACTTT, the switch fluorescence ratio worked out at 0.9915 ± 0.0085.

As for TTATTTACTA, the switch fluorescence ratio was 1.04 ± 0.011.

With GGATTTCGTG, the switch fluorescence ratio stood at 0.986 ± 0.024.

For the sequence AGGGGGAACG, the switch fluorescence ratio worked out at 1.01 ± 0.016.

With TAGCCAGCTC, the switch fluorescence ratio is 0.996 ± 0.034.

As to GGGCATTGCG, the switch fluorescence ratio came out at 0.9667 ± 0.0091.

Take TGGTGAGGGG: the switch fluorescence ratio was determined as 1.12 ± 0.24.

Take AGCCAGAGGG: the switch fluorescence ratio is 1.005 ± 0.0055.

Turning to AGGCTATTTC, the switch fluorescence ratio stood at 0.994 ± 0.019.

In the case of GACTATTATG, the switch fluorescence ratio worked out at 1 ± 0.019.

On to GAAGGGTAAT, for which the switch fluorescence ratio came to 0.9955 ± 0.0036.

As for TGGGTAGGCT, the switch fluorescence ratio was 0.996 ± 0.035.

Consider TATGTGTGTG, for which the switch fluorescence ratio stood at 0.9889 ± 0.0089.

As to AGACACTGAC, the switch fluorescence ratio turned out to be 1.45 ± 0.028.

For the sequence ATACTGGGGT, the switch fluorescence ratio was 1.04 ± 0.056.

As to TAGGGTGTTG, the switch fluorescence ratio turned out to be 1.01 ± 0.021.

In the case of CGCAGGTTAG, the switch fluorescence ratio came out at 1.11 ± 0.025.

AGGTTTTTAG: the switch fluorescence ratio was 0.944 ± 0.024.

With GCGAGGTAGG, the switch fluorescence ratio is 0.9669 ± 0.0043.

Regarding GACCGGCGTC, the switch fluorescence ratio is 1.02 ± 0.017.

Take GATTGTCTTA: the switch fluorescence ratio was 0.979 ± 0.016.

On to TTCCAAGGGA, for which the switch fluorescence ratio worked out at 1 ± 0.029.

For the sequence TTGGAGAAAT, the switch fluorescence ratio is 1.05 ± 0.025.

As for TTATTTGGTA, the switch fluorescence ratio was found to be 0.986 ± 0.044.

With TTGCACAAAA, the switch fluorescence ratio amounted to 1.033 ± 0.0078.

Turning to TATGCCCAGA, the switch fluorescence ratio came to 1.03 ± 0.041.

In the case of GGATTCTGGG, the switch fluorescence ratio worked out at 0.963 ± 0.042.

Consider GAGGGTGGGC, for which the switch fluorescence ratio was 1.03 ± 0.09.

For CCCTGATCTG, the switch fluorescence ratio is 1.02 ± 0.011.

For the sequence TTTACCTGAG, the switch fluorescence ratio amounted to 1.37 ± 0.025.

With CATTGGAGTC, the switch fluorescence ratio is 0.998 ± 0.043.

Take TGGAATTTGG: the switch fluorescence ratio was determined as 1 ± 0.038.

Regarding GACTGCGGAG, the switch fluorescence ratio stood at 1 ± 0.026.

As for CAATTTTTTT, the switch fluorescence ratio turned out to be 1.08 ± 0.12.

Turning to GAAGTTATCG, the switch fluorescence ratio turned out to be 0.982 ± 0.022.

For the sequence CTTTGTAGCC, the switch fluorescence ratio amounted to 1.05 ± 0.012.

Take AAAAATGTCA: the switch fluorescence ratio was 0.979 ± 0.045.

On to CCCGGTATCG, for which the switch fluorescence ratio was found to be 0.983 ± 0.013.

As to CCTCGTGTTT, the switch fluorescence ratio worked out at 1.08 ± 0.0061.

As for AGTTTGCTCG, the switch fluorescence ratio was found to be 0.971 ± 0.093.

For CGGGTGATCG, the switch fluorescence ratio was determined as 0.96 ± 0.043.

In the case of TGAAGACATT, the switch fluorescence ratio was 1.02 ± 0.04.

Take AAAAACAACT: the switch fluorescence ratio was found to be 1.024 ± 0.0076.

Take GGGGAAACAA: the switch fluorescence ratio was found to be 0.99 ± 0.024.

Turning to AGTAGTACGG, the switch fluorescence ratio was found to be 1 ± 0.029.

Take TCATCTACAG: the switch fluorescence ratio turned out to be 1.02 ± 0.013.

On to GGAGAGGTTG, for which the switch fluorescence ratio is 0.971 ± 0.021.

For ATTGAAATCA, the switch fluorescence ratio was 0.987 ± 0.018.

Take ATGTCTTGGC: the switch fluorescence ratio is 0.998 ± 0.03.

On to TACGGTTTTT, for which the switch fluorescence ratio worked out at 0.967 ± 0.019.

With GCCTTCCCGG, the switch fluorescence ratio worked out at 1.9 ± 0.08.

Regarding ATCTGCCGGT, the switch fluorescence ratio was 0.981 ± 0.017.

With GTGGACCGGA, the switch fluorescence ratio turned out to be 1.06 ± 0.012.

For AAGGGGCAGC, the switch fluorescence ratio was found to be 0.9903 ± 0.0069.

With AATGTTAGTG, the switch fluorescence ratio was 0.958 ± 0.036.

CGTTCTAGTT: the switch fluorescence ratio was 1.001 ± 0.01.

Turning to TGCCCCGATA, the switch fluorescence ratio amounted to 2.66 ± 2.3.

On to GAATAGGTAA, for which the switch fluorescence ratio stood at 1.023 ± 0.0038.

Take TTGGGTTGGC: the switch fluorescence ratio was determined as 1.02 ± 0.043.

On to AGGGTATTTA, for which the switch fluorescence ratio is 1.007 ± 0.01.

With TGGCTGGAAC, the switch fluorescence ratio stood at 0.981 ± 0.021.
